Laboratory results taken from article PMC6880778.

Experiments:
[1] = molecular target: ecto-PfGAMA (N25-G715) (P. falciparum); assay: SPR; Biacore X100, CM5 chip; PfGAMA as ligand, analyte in single-cycle kinetics at 0.16, 0.8, 4, 20 and 100 nM; global fit to a 1:1 binding model
[2] = molecular target: recombinant ecto-PfGAMA (N25-G715) (P. falciparum); assay: SPR; Biacore X100, CM5 chip; recombinant PfGAMA as ligand, PfMSP10 protein as analyte; single-cycle kinetics at 0.16, 0.8, 4, 20 and 100 nM; global fitting in a 1:1 binding model
[3] = molecular target: recombinant ecto-PfGAMA (N25-G715) (P. falciparum)

Molecule	Kd [1] [nM]	koff [1] [s⁻¹]	kon [1] [M⁻¹ s⁻¹]	Kd [2] [nM]	GIA activity (growth inhibition of cultured P. falciparum parasites) of 20 mg/ml rabbit antibodies raised against PfMSP10 R1 [3] [%]
PfMSP10 R1 (D29-N188) (domain or fragment)	648	0.000355	548		
ecto-PfMSP10 (D29-Q507) (domain or fragment)	99.7	0.0015	15000		
recombinant ecto-PfMSP10 (D29-Q507) (domain or fragment) DDIKNTSQKKITYDKYNKNKENMNNEKNDNKDNKDNIYNDNINNDNINNDNINNEDEYKFLSMKHYKDSLSNKLNNENDHMNYLIRKRKDNTQGSQHFNENIENNENVENNENIENNENNENIENIENNENNENNENIENNENNENNENSSIMNSESYNNIINSNEHNEEQIKKKEEDLIEAFFPFILKKLDNESLSLDNKYDDYYNLPNDHNDTHKENSSDHNLLGYKLGNNLKSYLIEENDVSQKKTDDINESASSDSENIQEILSTDSNTSHLKERKNQKAPPGEHKPEVKNALLNSQVASPKGEDEKKSQPQHPLVNSGDQLQHPKEIDENAEKIRRTLLKESRDIKNTTAIIDETVYKFEQLIMKGRYYATAVRNFVIFKVNYICEYSKCGPNSRCYIVEKDKEQCRCRPNYIVDMSVNYFKCIPMKDMNCSKNNGGCDVNAECTIVEGAVKCQCSHLYFGDGVFCVKNSQTKQ				100	
PfMSP10 region 1 (R1, D29-N188) (domain or fragment) DDIKNTSQKKITYDKYNKNKENMNNEKNDNKDNKDNIYNDNINNDNINNDNINNEDEYKFLSMKHYKDSLSNKLNNENDHMNYLIRKRKDNTQGSQHFNENIENNENVENNENIENNENNENIENIENNENNENNENIENNENNENNENSSIMNSESYNN				650	11
